# T1: DJ-1, endogenous in SH-SY5Y cells (human (endogenous in SH-SY5Y)), Q99497
# T1 chain: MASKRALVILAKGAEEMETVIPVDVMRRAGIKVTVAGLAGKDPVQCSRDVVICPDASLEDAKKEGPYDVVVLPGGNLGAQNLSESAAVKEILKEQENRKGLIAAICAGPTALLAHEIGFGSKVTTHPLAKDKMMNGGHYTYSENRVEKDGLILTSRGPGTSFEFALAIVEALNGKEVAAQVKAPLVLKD
# B1: Arc, endogenous in rat brain tissue (dentate gyrus, hippocampal CA, cortex) (natural protein, rat (endogenous in rat brain tissue), UniProt Q63053 1-396, looked up)
# chain: MELDHMTTGGLHAYPAPRGGPAAKPNVILQIGKCRAEMLEHVRRTHRHLLTEVSKQVERELKGLHRSVGKLENNLDGYVPTGDSQRWKKSIKACLCRCQETIANLERWVKREMHVWREVFYRLERWADRLESMGGKYPVGSEPARHTVSVGVGGPEPYCQEADGYDYTVSPYAITPPPAAGELPEQESVGAQQYQSWVPGEDGQPSPGVDTQIFEDPREFLSHLEEYLRQVGGSEEYWLSQIQNHMNGPAKKWWEFKQGSVKNWVEFKKEFLQYSEGTLSREAIQRELDLPQKQGEPLDQFLWRKRDLYQTLYVDAEEEEIIQYVVGTLQPKFKRFLRHPLPKTLEQLIQRGMEVQDGLEQAAEPSVTPLPTEDETEALTPALTSESVASDRTQPE
# notes: Arc (Arg3.1), endogenous in adult Sprague-Dawley rat brain tissue; monomer at ~55 kDa on SDS-PAGE; also called Arg3.1; endogenous Arc; source: endogenous, rat brain tissue (DG, CA, cortex), in tissue / lysate
# B2: Arc, endogenous in primary cortical neuronal cultures (natural protein, UniProt Q63053 1-396, looked up)
# chain: B1 chain
# notes: Arc (Arg3.1), endogenous in primary cortical neurons; also called Arg3.1; source: endogenous, primary cortical neuronal cultures (BDNF 50 ng/mL, 2 h), in cells / lysate
# B3: rArc-StrepII-HA, stably expressed in SH-SY5Y cells (natural protein, UniProt Q63053 1-396, looked up)
# chain: B1 chain
# notes: Arc printed as rArc in the cassette CMV::rArc-StrepII-HA; the species is not spelt out; monomer at ~60 kDa on SDS-PAGE; also called tagged-Arc; exogenous Arc
# B4: Arc N-terminally fused to monomeric Turquoise 2 (mTq2-Arc) (natural protein, UniProt Q63053 1-396, looked up)
# chain: B1 chain
# notes: Arc; fusion monomer at ~75 kDa on SDS-PAGE; The crosslinking in HEK293FT cells follows Eriksen et al. (2021); the construct may be described there; also called ectopic Arc; source: HEK293FT, transfected (CMV promoter), in cells / lysate; not shown: monomeric Turquoise 2 (mTq2), N-terminal, kept
# B5: Activity-regulated cytoskeleton-associated protein (Arc), endogenous in human SH-SY5Y neuroblastoma cells (natural protein, human (endogenous in SH-SY5Y), UniProt Q7LC44 1-396, looked up)
# chain: MELDHRTSGGLHAYPGPRGGQVAKPNVILQIGKCRAEMLEHVRRTHRHLLAEVSKQVERELKGLHRSVGKLESNLDGYVPTSDSQRWKKSIKACLCRCQETIANLERWVKREMHVWREVFYRLERWADRLESTGGKYPVGSESARHTVSVGVGGPESYCHEADGYDYTVSPYAITPPPAAGELPGQEPAEAQQYQPWVPGEDGQPSPGVDTQIFEDPREFLSHLEEYLRQVGGSEEYWLSQIQNHMNGPAKKWWEFKQGSVKNWVEFKKEFLQYSEGTLSREAIQRELDLPQKQGEPLDQFLWRKRDLYQTLYVDADEEEIIQYVVGTLQPKLKRFLRHPLPKTLEQLIQRGMEVQDDLEQAAEPAGPHLPVEDEAETLTPAPNSESVASDRTQPE
# notes: Arc (Arg3.1), endogenous in human SH-SY5Y neuroblastoma cells; monomer at ~50 kDa on SDS-PAGE; also called Arg3.1; endogenous Arc; source: endogenous, SH-SY5Y cells (induced with 100 uM carbachol), in cells / lysate
# B6: DJ-1, endogenous in SH-SY5Y cells, Q99497 1-189 (natural protein)
# chain: T1 chain
# B7: DJ-1, endogenous in rat brain tissue (natural protein, rat (endogenous in rat brain tissue), UniProt O88767 1-189, looked up)
# chain: MASKRALVILAKGAEEMETVIPVDIMRRAGIKVTVAGLAGKDPVQCSRDVVICPDTSLEEAKTQGPYDVVVLPGGNLGAQNLSESALVKEILKEQENRKGLIAAICAGPTALLAHEVGFGCKVTSHPLAKDKMMNGSHYSYSESRVEKDGLILTSRGPGTSFEFALAIVEALSGKDMANQVKAPLVLKD
# notes: DJ-1, endogenous in rat DG, CA and cortical tissue; also called DJ-I; source: endogenous, rat brain tissue (DG, CA, cortex), in tissue / lysate
# Assays:
# [1] = target: the molecule itself; test: cross-linking; in situ/ex vivo, 0.5 mM DSG, 30 min, 37 °C, PBS pH 7.4, ~0.5 mm slices of rat DG, CA or cortex (naive, HFS-LTP or BDNF-LTP); lysis in 1% Triton X-100; SDS-PAGE with DTT and immunoblot
# [2] = target: the molecule itself; test: cross-linking; DSG-crosslinked pooled rat DG (1, 2, 4 h post-HFS), then Arc immunoprecipitation (rabbit anti-Arc antibody or ALFA-H11 nanobody) and Arc immunoblot
# [3] = target: the molecule itself; test: cross-linking; in situ, 0.2 mM DSG, 10 min, 4 °C, in PBS pH 7.4, harvested SH-SY5Y cells (untreated or carbachol) or cortical neuronal cultures (untreated or BDNF); quenched with 50 mM Tris-HCl; SDS-PAGE with DTT and immunoblot
# [4] = target: the molecule itself; test: SDS-PAGE and immunoblot without cross-linker; non-crosslinked (DMSO only) cells or tissue, boiled in Laemmli buffer with DTT; species that resist SDS
# [5] = target: the molecule itself; test: cross-linking + affinity purification with mass spectrometry; in situ, 0.1 mM DSG, 10 min, 4 °C, mTq2-Arc transfected HEK293FT cells; immunoblot, Arc immunoprecipitation and LC-MS/MS of gel-excised bands (~75, 150, 250, >250 kDa)
# [6] = target: T1, DJ-1, endogenous in SH-SY5Y cells …; test: cross-linking; in situ, 0.2 mM DSG, 10 min, 4 °C, in PBS pH 7.4, harvested SH-SY5Y cells (untreated or carbachol) or cortical neuronal cultures (untreated or BDNF); quenched with 50 mM Tris-HCl; SDS-PAGE with DTT and immunoblot; details: remark: other sources report otherwise
# [7] = target: the molecule itself; test: cross-linking; thiol-cleavable DSP on rat CA tissue; non-reducing SDS-PAGE and immunoblot; crosslinks reversed by DTT
binder,measurement,setting,value
B1,"ratio of dimer:monomer in the DSG lane (BDNF-LTP, 2 h)",[1],0.56
same,"ratio of dimer:monomer in the DSG lane (HFS-LTP, 2 h)",[1],0.4
same,stoichiometry N,[2],2
B2,stoichiometry N,[3],2
B3,stoichiometry N,[4],2
B4,stoichiometry N,[5],2
B5,stoichiometry N,[3],2
B6,stoichiometry N,[6],2
B7,stoichiometry N,[7],2

# Source: paper PMC10289200, “Detection of Arc/Arg3.1 oligomers in rat brain: constitutive and synaptic activity-evoked dimer expression in vivo” (Frontiers in Molecular Neuroscience, 2023)
